According to the supplement of paper PMC12042874:
± gives the uncertainty stated by the source.

Test: amyloid nucleation score (Sup35N fusion, yeast selection) (log enrichment); library NNK3; higher = more nucleation; inactive = no reads after selection
Outline: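 Peptides of 20 random codons, each fused to Sup35N, were expressed in psi-negative yeast. Cells were induced with 100 μM copper sulfate for 24 hours and grown 7 days at 30°C on medium lacking adenine and uracil, and plasmid inserts before and after selection were Illumina-sequenced. Nucleation scores are DiMSum log enrichments of output over input reads, centred on the mode score of non-aggregating sequences, and sequences under 100 input reads were excluded.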

Substance | amyloid nucleation score
IGFIIGDVFAA | inactive
YINHSSSTA | inactive
YRWYQINSGSYLYLASRWCW | inactive
CNPQTFSFVLMVRLCSKSGV | inactive
VGNWYGKTIGMSSLEFLMSR | inactive
LGCTGALNNRCCERQANGRQ | inactive
FRTTLKTR | inactive
FPYNGALSFCIWYRVASRVY | inactive
LRLQRDPCSNSLSVLSCIFC | 2.63 ± 0.06
NLAFAVYARTRLKLSPASCV | inactive
MSLRSSRHTPVDSQISSMEM | inactive
AASIFGNSV | inactive
VSIRTR | inactive
GSYRWAVGGKDWGHWDRCLA | inactive
RLSQCRLLVFDGTQVFMCCV | 2.01 ± 0.077
HWQYCLIFNQYVLKLCATHC | 1.04 ± 0.16
ITKQEVLSLTIFRMAEGVQW | 0.382 ± 0.4
TSDQSESISLFRYI | inactive
LTSLLTARKNCTNFHN | inactive
RCWLKRAWVWSQKVSDRSTW | inactive
GLCWRMLTFLWSFVSMENNG | -0.565 ± 1.1
RDVWDYSREHLYNDDFLIGA | -0.422 ± 0.75
LSVYGLQGHSNHNRMDGISW | 0.718 ± 0.2

Substance | amyloid nucleation score
MGYCLGNDGSIKALFLVVNV | inactive
HDCSYLGILKDMDS | inactive
TMDTYSVPPHNFGMLCYGL | inactive
CDAHSLSMLRVQIK | inactive
SNLFTGYGELFVPGS | inactive
LLDSVDMLGFVMWVFGEVTN | inactive
RQIVKPASQVILCRCLCTGA | 1.04 ± 0.1
CHDVLIKWNMVCTSVVEGEH | inactive
SFITTCIYRNVSVFCDHSAE | inactive
VCQPNRSQIQGIFLLRNYSV | inactive
WIPHPEFGVSIGIV | inactive
VSSATTTMARRIHCFRVSRV | inactive
NNTSGNLVCFSVKCNVIVPY | 2.42 ± 0.056
IEWACVKQMYSHRALLRERR | inactive
GLGYFPIWASLRTKLVLILG | inactive
SVRTSAYYKFQRTERVSMCM | inactive
NTRSPAESMHHPLMAMAVKN | inactive
YLVGCWNYESKN | 0.234 ± 0.25
MINSCFK | inactive
GRWLV | inactive
WVNTGNQRLYRQTCCGTLVR | inactive
GYISMSNKHMGVYIHLA | inactive
GRLLMFASDLLNSPRMCWTE | -0.687 ± 1.8

Substance | amyloid nucleation score
LFGQVVGVDFFNWWCFEMHK | inactive
AIIDYFMM | inactive
CKARTSASSNQHRESVYGLE | inactive
VPFVRVNDALVVVSLWDKVL | inactive
WCGVSLVL | inactive
MMRSVHFFRCRQTHENLLMC | -0.207 ± 0.66
MDGPGVTFCPEVLDKWDGSI | -0.205 ± 1.4
VRGLDVCTDEFCVQLDYMW | inactive
GCSRHYKFS | inactive
FTFLMDRY | -0.083 ± 0.34
FNRGKRCNSIRSLVPCNSPL | inactive
YVNLCLGANPRSYMFKYGTH | 0.197 ± 0.66
ASVKGDRDDELSIKYVFGVG | inactive
STTMAFAAIVFEIYSVTSWF | inactive
LNFNSWNGLKYR | inactive
NGMAFGSRVNRLGGCSEVEV | inactive
RFSVNGNR | inactive
NRVYA | inactive
SCEDVVANVLLYCRISGHWG | inactive
CSFIGYHGFVCLSVDIVLGC | 1.51 ± 0.12
ANLADKILFFGSPCRVMHPV | inactive
VYGLMIIWVIVLYPV | inactive
VIVSREKSITRSNVIEWWNL | 1.82 ± 0.11

Substance | amyloid nucleation score
NRYIGNIYEKNGNSNFKPSI | inactive
TEPRMLGMCPAVVERMRVEG | inactive
ISKSVLMMNTAKIPPPMF | inactive
HQIFYVFEYEYSKRLLCMWW | inactive
CLFREA | inactive
TCVNLIMKIECFLYYGFLCP | inactive
VFCVRRSLQNLRNSGNDSHR | inactive
TVGQQWRPSRKLSSSSAIRN | inactive
WFYVIGTVMWYSLNAGYYMW | inactive
SKAVSLCGLRLMFFPLYPGS | inactive
AIFFSFYRSFY | 1.86 ± 0.053
YCTWAYRVYSYSGCTMMIVL | inactive
FTSFSYYMVCFCADIIKQG | 1.97 ± 0.065
LVVPGYNLL | inactive
SGYLYFFLRSVDCRFLTSSL | inactive
NILGLKCPSYYPQHVSCGYY | inactive
VSMVQVTIRKRAS | inactive
RDQSVCGLSRGVIRVVGSCG | inactive
LHKLVLMINDRPYLKPS | inactive
VKFYNLRRCVIDLMITLSRM | inactive
VGPRGGNVSEGPPRVWVNGC | inactive
VVVCNRIVNSSEFRCSYTRK | 1.73 ± 0.09
WLQISIEKTTKFPSKMNH | 1.58 ± 0.11

Substance | amyloid nucleation score
VLLQKGTETECGLAIVQLKW | inactive
RNYDFSKGITVSWRLLHA | inactive
SRWATGWTTIISYMEPWFRA | inactive
YVIITGRKQGITNM | inactive
HRKMHDT | inactive
MIFNVDGLDLVPDKVRYYRD | inactive
VMYCYWSLIMSDSCNFMCQY | 2.08 ± 0.058
TVYSGWCTREVRICEPMNRG | inactive
PREWLGVLLMTVLNFWMTVV | inactive
FLFIGSFCGCSVSRPDRYYS | 2.57 ± 0.08
RSRKLCNPIMILLQVFGNYG | 1.43 ± 0.07
TGSVFVKDGTLWPTCVDLIG | inactive
ILGKRC | inactive
MKLINRDFSL | inactive
WILLGNGSMNMKSCFMLLFV | inactive
ITYFLWAVFYDGFSMSFFVA | inactive
AFTRQIIWRDGGERPPWMRV | inactive
LIGCVLGSLFLRDIFIYCLM | 0.409 ± 0.67
GYSNFDCLSSLNISEYGPAA | inactive
TVHYSLIRWTSGNCGLGYW | 0.841 ± 0.17
FLYMSMPSLSMVQICYSQRG | 1.99 ± 0.07
VASTVSRVAKDTKAKVAYR | inactive
FLCTLSMWYCIDRTFMYMCS | -0.053 ± 0.32

Substance | amyloid nucleation score
HYSLNASIYSTCTRTSMNPV | -0.136 ± 0.53
VRSIRWKVT | inactive
SISMQVNHPEY | inactive
SQDGYDLHRSFRLLEVGSEL | inactive
KFLPGCCFYMRIMSQVSLKN | inactive
DIFCLVVTYAERLLYLKTRT | -0.09 ± 0.75
KSCWLSYGFQLFIGVMNMH | 1.29 ± 0.079
LCRSGIFKSYWNITMFFKFL | inactive
DIYMMLICGWGLGKLIPGFM | inactive
LIADHIVRSSSLMSWFSPSR | inactive
AMNPLRLGLWSYNRLAWNMS | inactive
SLAINSYVCMYIHFQTTMRD | inactive
KFFYCERVLSGNRVKRHERI | 0.676 ± 0.21
YINLFGKWA | 1.53 ± 0.1
RLTTLPIRSPFTLGYTFARK | inactive
DYTRKVHTIEGSSYYWLNFS | 1.36 ± 0.078
YWAQLPNPPYLLCPH | inactive
ANVHNTENLRGLILCRRLLH | inactive
SMGSPVNVIWTSSYS | inactive
ISFGYQVYA | inactive
LLVVYIFTGPLTVPHVWTIE | inactive
VLPVHNKVNITLTVSAPWLW | inactive
IGRNSSKIFLFFCSCMRMFS | 2.95 ± 0.077

Substance | amyloid nucleation score
RDLMEGRTTLWMNSGTAIWA | inactive
HLAHLSRSLSVKSSSVMKGH | inactive
FNITGRVSYSIVTLCFMQCK | 2.75 ± 0.069
LWSCPTDFRMCSVWLTLRVS | inactive
ARLFKGYSVVLCLCVSHR | inactive
FLDGFVQPISESINLLMFCT | inactive
YKSNLLSYGALLISDFVLVR | -0.108 ± 0.63
RGAPVFCFYKWFSTATCSIA | inactive
VCNIAQ | inactive
MWLVFLTKQNYNNKVQTG | inactive
RCFRTLIRENMKLANTSDMT | inactive
HHRLSGEMSSWVATATCWVG | inactive
WSNTFVWLSINLSYIV | inactive
MYMIWSWCVQMLVNLNHAMA | inactive
ITQWWVYIKNF | inactive
TQNGGVNVIRFYLCDFLSGL | 2.87 ± 0.067
TLSHIGGIEGFINGCLSVGP | inactive
VPEWG | inactive
